Common to all, as to assay type: cell-based
The target of experiment [1] is T1, thyroid receptor beta (TRβ-VP16) (Homo sapiens, UniProt P10828).
T1 construct: expressed in transfected cells
T1 sequence (P10828 1-461): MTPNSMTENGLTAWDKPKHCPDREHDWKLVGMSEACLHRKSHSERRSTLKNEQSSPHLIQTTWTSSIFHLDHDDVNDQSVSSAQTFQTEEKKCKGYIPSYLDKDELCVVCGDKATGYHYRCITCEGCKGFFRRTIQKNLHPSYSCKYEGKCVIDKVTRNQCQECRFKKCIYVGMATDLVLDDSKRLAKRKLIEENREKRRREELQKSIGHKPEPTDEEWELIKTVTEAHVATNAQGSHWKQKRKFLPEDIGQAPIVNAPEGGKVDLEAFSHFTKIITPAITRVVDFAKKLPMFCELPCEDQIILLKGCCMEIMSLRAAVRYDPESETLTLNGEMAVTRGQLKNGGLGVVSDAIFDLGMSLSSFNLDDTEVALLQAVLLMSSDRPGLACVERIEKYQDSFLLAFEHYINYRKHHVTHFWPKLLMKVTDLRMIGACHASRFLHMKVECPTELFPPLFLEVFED
Nature of the experiment: Mammalian two-hybrid, specificity of peptide-nuclear receptor interaction (Example 4.2). The note with it: mammalian two-hybrid (Fig. 8). An excerpt:
(§1) Peptide sequences representing each class was fused to the DNA binding domain (DBD) of the yeast transcription factor Ga14. HepG2 cells were then transiently transfected with expression vectors for ERα-VP16 and the Gal4-peptide fusion proteins. In addition, a luciferase reporter construct under the control of 5 copies of a Ga14 upstream enhancer element was also transfected along with a pCMV-β galactosidase vector to normalize for transfection efficiency. Transfection of the Ga14 DBD alone is included as control. Cells were then induced with various ligands as indicated in the figure and assayed for luciferase activity and β galactosidase activity. Normalized response was obtained by dividing the luciferase activity by the β galactosidase activity.
(§2) The specificity of peptide-nuclear receptor interaction was analyzed (Fig. 8) using the mammalian two-hybrid system. Experimental design is the same as in figure 2 except that either progesterone receptor (PRB-VP16), estrogen receptor beta (ERβ-VP16), glucocorticoid receptor (GR-VP16) or thyroid receptor beta (TRβ-VP16) was tested.

Experiment [2] addresses T2, progesterone receptor (PRB-VP16) (Homo sapiens, UniProt P06401).
T2 construct: expressed in transfected cells
T2 sequence (P06401 1-933): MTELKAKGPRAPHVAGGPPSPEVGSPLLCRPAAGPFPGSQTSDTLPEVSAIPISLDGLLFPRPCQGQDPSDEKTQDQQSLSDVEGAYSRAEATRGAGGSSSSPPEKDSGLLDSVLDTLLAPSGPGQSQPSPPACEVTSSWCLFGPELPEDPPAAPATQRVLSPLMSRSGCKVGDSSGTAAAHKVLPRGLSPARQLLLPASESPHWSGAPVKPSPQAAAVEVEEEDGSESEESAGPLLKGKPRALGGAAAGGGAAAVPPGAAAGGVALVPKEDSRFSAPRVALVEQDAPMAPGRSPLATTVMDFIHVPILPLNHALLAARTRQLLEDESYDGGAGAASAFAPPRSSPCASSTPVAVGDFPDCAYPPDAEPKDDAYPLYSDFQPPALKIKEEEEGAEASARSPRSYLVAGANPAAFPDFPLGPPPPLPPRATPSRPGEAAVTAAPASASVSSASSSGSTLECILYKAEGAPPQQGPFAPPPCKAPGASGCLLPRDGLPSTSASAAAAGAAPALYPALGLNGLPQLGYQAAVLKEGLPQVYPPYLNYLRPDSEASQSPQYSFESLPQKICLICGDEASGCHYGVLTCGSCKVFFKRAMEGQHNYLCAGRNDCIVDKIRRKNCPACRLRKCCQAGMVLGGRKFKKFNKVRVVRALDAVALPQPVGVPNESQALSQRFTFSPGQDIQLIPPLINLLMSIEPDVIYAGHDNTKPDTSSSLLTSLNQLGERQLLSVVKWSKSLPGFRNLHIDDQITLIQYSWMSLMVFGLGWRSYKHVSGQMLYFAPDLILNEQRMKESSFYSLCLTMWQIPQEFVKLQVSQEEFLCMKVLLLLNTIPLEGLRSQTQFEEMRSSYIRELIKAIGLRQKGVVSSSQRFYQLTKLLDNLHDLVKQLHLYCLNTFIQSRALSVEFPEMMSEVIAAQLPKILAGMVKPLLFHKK
The experiment is described as above. The note with it: mammalian two-hybrid (Fig. 8).
Description: as §1, §2

Experiment [3] deals with T3, estrogen receptor beta (ERβ-VP16) (Homo sapiens, UniProt Q92731).
T3 construct: expressed in transfected cells
T3 sequence (Q92731 whole entry, species assumed): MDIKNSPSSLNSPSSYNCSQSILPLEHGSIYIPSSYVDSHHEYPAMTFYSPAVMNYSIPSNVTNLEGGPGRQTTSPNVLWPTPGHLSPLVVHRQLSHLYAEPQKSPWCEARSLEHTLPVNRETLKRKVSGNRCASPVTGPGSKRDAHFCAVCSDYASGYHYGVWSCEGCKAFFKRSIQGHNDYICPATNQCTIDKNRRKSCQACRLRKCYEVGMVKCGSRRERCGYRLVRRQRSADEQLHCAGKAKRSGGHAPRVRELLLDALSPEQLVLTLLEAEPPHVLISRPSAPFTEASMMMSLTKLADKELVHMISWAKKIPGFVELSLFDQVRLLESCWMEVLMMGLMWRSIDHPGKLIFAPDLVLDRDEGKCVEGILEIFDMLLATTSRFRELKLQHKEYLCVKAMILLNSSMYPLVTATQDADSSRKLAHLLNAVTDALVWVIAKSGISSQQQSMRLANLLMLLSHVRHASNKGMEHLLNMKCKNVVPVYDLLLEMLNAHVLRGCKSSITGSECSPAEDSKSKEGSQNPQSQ
The experiment is described as above. The note with it: mammalian two-hybrid (Fig. 8).
Description: as §1, §2

In a further experiment the target is T4, ERα-VP16 (Homo sapiens, UniProt P03372).
T4 construct: expressed in transfected cells; host or cells: HepG2
T4 sequence (P03372 1-595): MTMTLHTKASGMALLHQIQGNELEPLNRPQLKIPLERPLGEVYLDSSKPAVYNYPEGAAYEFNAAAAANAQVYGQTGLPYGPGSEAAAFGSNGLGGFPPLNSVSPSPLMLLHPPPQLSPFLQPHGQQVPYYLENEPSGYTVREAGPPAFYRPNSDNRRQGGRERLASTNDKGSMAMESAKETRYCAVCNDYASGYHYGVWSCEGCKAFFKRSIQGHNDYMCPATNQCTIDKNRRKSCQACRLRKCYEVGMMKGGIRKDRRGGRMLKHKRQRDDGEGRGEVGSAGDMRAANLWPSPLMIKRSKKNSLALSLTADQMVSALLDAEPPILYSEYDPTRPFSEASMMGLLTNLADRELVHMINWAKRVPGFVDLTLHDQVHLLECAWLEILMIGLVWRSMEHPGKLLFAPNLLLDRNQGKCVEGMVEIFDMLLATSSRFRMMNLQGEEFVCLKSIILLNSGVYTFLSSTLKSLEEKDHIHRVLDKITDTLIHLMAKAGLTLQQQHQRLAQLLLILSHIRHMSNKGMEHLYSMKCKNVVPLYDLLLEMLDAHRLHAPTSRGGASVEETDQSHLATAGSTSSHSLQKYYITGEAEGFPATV
Nature of the experiment: Mammalian two-hybrid in HepG2 cells, Gal4-peptide fusions, luciferase reporter (Example 4.1). To be noted: Gal4-peptide fusion, various ligands (Fig. 7).
Description: as §1

With SSLTSRDFGSWYASR [α II], the “interaction with TRβ” value in experiment [1] was “None of the receptors tested interact significantly”. The “interaction with PRB” value in experiment [2] is given as “None of the receptors tested interact significantly”. The “interaction with ERβ” value in experiment [3] is given as “None of the receptors tested interact significantly”. Also, in the experiment with ERα-VP16, the “interaction with ERα (normalized luciferase response)” value is “interacts with the receptor under all conditions with the apo-receptor and ICI 182,780 bound receptor showing the least activity”.
Turning to SSPGSREWFKDMLSR [α/β V], the “interaction with PRB” value in experiment [2] is “able to associate with PRB in the presence of the PR antagonists RU 486 and ZK 98299”. Also, the “interaction with ERβ” value in experiment [3] was “bound ERβ only in the presence of tamoxifen”. Also, in the experiment with ERα-VP16, the “interaction with ERα (normalized luciferase response)” value is given as “interact almost exclusively with the tamoxifen bound receptor”.
For SSWDMHQFFWEGVSR [α/β III], the “interaction with TRβ” value in experiment [1] was “None of the receptors tested interact significantly”. Further, in experiment [2], the “interaction with PRB” value is on record as “None of the receptors tested interact significantly”. Moreover, the “interaction with ERβ” value in experiment [3] is on record as “None of the receptors tested interact significantly”. The “interaction with ERα (normalized luciferase response)” value with ERα-VP16 is given as “interact almost exclusively with the tamoxifen bound receptor”.
As to SSNHQSSRLIELLSR [α/β I], in experiment [1], the “interaction with TRβ” value was “interact with the αβ I peptide in the presence of the appropriate agonist”. Further, the “interaction with PRB” value in experiment [2] is on record as “interact with the αβ I peptide in the presence of the appropriate agonist”. Moreover, in experiment [3], the “interaction with ERβ” value is on record as “interact with the αβ I peptide in the presence of the appropriate agonist”. Besides, the “interaction with ERα (normalized luciferase response)” value in the experiment with ERα-VP16 is “interacts with ER in the presence of estradiol and somewhat with the apo-receptor”.

Source of the values: patent publication EP1073891B1, “METHOD OF PREDICTING RECEPTOR MODULATING ACTIVITY” (Duke University, priority 1998, dated 1999).
